Data: publication PMC5520896, “HIV integrase inhibitor, Elvitegravir, impairs RAG functions and inhibits V(D)J recombination” (Cell Death & Disease, 2017)
One block for each molecule: values may come before it.

Assays:
[1] = target: T1, RAG1 central domain mutant CD-DD (Mus musculus, UniProt P15919, D600A/D708A); test: biolayer interferometry (biotinylated CD-DD on SSA sensors); format: binding
T1 construct: central domain (amino acids 528–760) with point mutations D600A/D708A
T1 sequence (P15919 528-760 D600A/D708A): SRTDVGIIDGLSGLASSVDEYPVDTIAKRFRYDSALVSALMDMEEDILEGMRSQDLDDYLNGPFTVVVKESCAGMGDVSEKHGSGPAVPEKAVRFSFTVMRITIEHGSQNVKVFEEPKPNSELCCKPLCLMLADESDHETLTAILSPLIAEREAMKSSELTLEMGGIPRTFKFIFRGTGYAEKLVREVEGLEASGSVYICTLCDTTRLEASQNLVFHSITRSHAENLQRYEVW

RAG1 central domain = target: T2, RAG1 central domain (Mus musculus, UniProt P15919); test: biolayer interferometry (biotinylated central domain on SSA sensors); also circular dichroism, and inhibition of purified cRAG binding, cleavage and hairpin formation
T2 construct: central domain (amino acids 528–760)
T2 sequence (P15919 528-760): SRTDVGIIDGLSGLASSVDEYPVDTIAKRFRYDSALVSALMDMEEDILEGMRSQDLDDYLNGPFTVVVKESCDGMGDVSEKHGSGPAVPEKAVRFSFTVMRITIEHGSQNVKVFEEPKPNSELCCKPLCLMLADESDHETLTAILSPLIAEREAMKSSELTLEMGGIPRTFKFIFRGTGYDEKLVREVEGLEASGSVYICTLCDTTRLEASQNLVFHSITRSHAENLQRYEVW

[2] = target: T3, MBP-core RAG1 (cRAG1);MBP-core RAG2 (cRAG2) (;, UniProt P15919;P21784 384-1040;1-383, |); test: EMSA; 5 mM Ca2+, Raltegravir 0.1-0.5 mM (no significant effect); 22.5 mM MOPS-KOH pH 7.0, 20% DMSO, 2.2 mM DTT, 50 mM K-glutamate, 2% glycerol, 100 ng/ml BSA, 5 mM CaCl2, 100 ng RAG, 2 h 25 C, then 0.01% glutaraldehyde fixation 37 C 10 min; 6% native PAGE; settings: protein: recombinant;recombinant; tags: N-terminal MBP;N-terminal MBP; chain copies: 2;2; label: 5'-32P on AKN46; blunt ends, internal 6-nt CCCCCC/CCCCCC bubble flanked by 15 bp each side
T3 sequence 1: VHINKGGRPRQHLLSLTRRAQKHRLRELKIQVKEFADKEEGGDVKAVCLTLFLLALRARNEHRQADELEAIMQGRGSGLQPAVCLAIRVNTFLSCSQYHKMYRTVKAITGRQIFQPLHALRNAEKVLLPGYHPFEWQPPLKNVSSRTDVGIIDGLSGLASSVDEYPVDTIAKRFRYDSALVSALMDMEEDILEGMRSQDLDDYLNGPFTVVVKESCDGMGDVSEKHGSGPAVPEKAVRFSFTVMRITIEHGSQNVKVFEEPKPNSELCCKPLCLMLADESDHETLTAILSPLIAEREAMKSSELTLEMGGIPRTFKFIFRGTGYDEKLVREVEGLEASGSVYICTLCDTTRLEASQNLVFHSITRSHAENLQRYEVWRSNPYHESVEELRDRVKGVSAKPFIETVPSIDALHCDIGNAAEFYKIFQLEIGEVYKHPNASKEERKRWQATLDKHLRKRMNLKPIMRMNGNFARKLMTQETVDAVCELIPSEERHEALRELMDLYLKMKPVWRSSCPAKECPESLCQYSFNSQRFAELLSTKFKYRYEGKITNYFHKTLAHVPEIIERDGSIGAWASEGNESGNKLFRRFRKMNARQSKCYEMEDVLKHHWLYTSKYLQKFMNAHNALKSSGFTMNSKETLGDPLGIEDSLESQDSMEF
T3 sequence 2: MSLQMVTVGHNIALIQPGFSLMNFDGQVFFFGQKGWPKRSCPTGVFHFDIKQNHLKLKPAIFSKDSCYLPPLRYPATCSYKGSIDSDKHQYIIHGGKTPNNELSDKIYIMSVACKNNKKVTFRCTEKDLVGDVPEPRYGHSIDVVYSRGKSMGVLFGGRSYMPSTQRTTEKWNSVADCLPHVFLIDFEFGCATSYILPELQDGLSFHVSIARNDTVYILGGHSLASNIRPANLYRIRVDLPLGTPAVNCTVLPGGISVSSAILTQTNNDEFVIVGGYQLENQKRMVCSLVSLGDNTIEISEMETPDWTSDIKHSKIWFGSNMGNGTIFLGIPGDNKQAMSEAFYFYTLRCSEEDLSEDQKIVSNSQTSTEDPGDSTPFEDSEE

MBP-core RAG1 (cRAG1) = target: T4, MBP-core RAG1 (cRAG1) (UniProt P15919 384-1040); test: EMSA; 5 mM Ca2+; lower band assigned to RAG1 alone; 22.5 mM MOPS-KOH pH 7.0, 20% DMSO, 2.2 mM DTT, 50 mM K-glutamate, 2% glycerol, 100 ng/ml BSA, 5 mM CaCl2, 100 ng RAG, 2 h 25 C, then 0.01% glutaraldehyde fixation 37 C 10 min; 6% native PAGE; settings: protein: recombinant; tags: N-terminal MBP; chain copies: 2; label: 5'-32P on AKN1; 1-nt 5' overhang at each end (49 bp)
T4 sequence: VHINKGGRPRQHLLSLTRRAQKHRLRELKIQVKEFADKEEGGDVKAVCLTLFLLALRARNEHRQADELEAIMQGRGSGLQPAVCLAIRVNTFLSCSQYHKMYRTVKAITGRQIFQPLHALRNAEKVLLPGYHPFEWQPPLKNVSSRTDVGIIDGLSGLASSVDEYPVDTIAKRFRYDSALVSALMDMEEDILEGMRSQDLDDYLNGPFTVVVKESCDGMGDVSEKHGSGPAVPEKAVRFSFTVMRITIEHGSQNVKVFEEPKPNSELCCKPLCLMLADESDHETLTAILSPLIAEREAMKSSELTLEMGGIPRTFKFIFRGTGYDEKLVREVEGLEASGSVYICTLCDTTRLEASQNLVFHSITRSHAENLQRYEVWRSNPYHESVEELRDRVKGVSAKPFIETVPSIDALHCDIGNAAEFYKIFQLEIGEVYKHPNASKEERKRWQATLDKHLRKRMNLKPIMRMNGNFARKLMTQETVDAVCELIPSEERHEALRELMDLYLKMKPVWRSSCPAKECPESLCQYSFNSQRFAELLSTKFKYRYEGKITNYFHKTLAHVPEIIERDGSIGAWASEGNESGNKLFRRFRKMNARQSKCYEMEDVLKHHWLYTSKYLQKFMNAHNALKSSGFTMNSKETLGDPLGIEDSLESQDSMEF

[3] = target: T3, MBP-core RAG1 (cRAG1);MBP-core RAG2 …; test: EMSA; 5 mM Ca2+, no inhibitor; 22.5 mM MOPS-KOH pH 7.0, 20% DMSO, 2.2 mM DTT, 50 mM K-glutamate, 2% glycerol, 100 ng/ml BSA, 5 mM CaCl2, 100 ng RAG, 2 h 25 C, then 0.01% glutaraldehyde fixation 37 C 10 min; 6% native PAGE; settings: protein: recombinant;recombinant; tags: N-terminal MBP;N-terminal MBP; chain copies: 2;2; label: 5'-32P on AKN1; 1-nt 5' overhang at each end (49 bp)

Kd [1]: 43.7 ± 3 µM
Kd (RAG1 central domain): 32.5 ± 2.9 µM
Molecule: COc1cc2c(cc1Cc1cccc(Cl)c1F)c(=O)c(C(=O)O)cn2[C@H](CO)C(C)C [EVG, Elvitegravir]

B1: (C/C)6 bubble heteroduplex (AKN46/AKN20) (mixed)
DNA 1: GACCTGAGGGCGAGCCCCCCCCGAGTAACTTAACAG
DNA 2: CTGTTAAGTTACTCGCCCCCCGCTCGCCCTCAGGTC
binding result [2]: binds

B2: 12RSS (AKN1/AKN2) (dsDNA)
DNA 1: GATCAGCTGATAGCTACCACAGTGCTACAGACTGGAACAAAAACCCTGCT
DNA 2: TAGCAGGGTTTTTGTTCCAGTCTGTAGCACTGTGGTAGCTATCAGCTGAT
binding result (MBP-core RAG1 (cRAG1)): binds
binding result [3]: binds
